Laboratory results: patent publication US20110236874A1, “METHOD FOR FORMATION OF RENAL TUBULES” (priority 2008, published 2011)
“Also recorded” adds a separate entry of the source.

What was measured:
[1] = tested on: primary human renal proximal tubule cells (HPTCs); assay: α-SMA immunostaining (myofibroblasts) in HPTC cultures on ECM coatings; type: cell-based; conditions: BMP-7 100 ng/ml constantly in the medium
Experimental: Immunostaining, histochemistry, and imaging: Immunostaining was performed as described in Sadoni et al. J Cell Biol 1999; 146(6): 1211-1226. The following primary antibodies were used: rabbit anti-ZO-1 (zonula occludens-1, Invitrogen, Carlsbad, Calif., USA) and mouse anti-α-smooth muscle actin (SMA) (Abcam, Cambridge, UK). Alexa Fluor 488-conjugated anti-rabbit (Invitrogen) and TRITC-conjugated anti-mouse (Invitrogen) secondary antibodies were applied. After immunostaining, cell nuclei were stained with DAPI and cells were mounted with vectashield (Vector Laboratories, Burlingame, Calif.) for microscopy. Histochemical detection of γGTP activity and controls were performed as described in Ryan et al. Kidney Int 1994; 45(1):48-57. Imaging was performed with a Zeiss AxioObserver Z1 microscope (Carl Zeiss, Jena, Germany) using the Zeiss AXIOVISION™ imaging software.
Disintegration of tight junctions after a certain time point is indicated. […]
Based on these observations, the question arose why the monolayer always disintegrated and could not be maintained for longer periods. […] Therefore, the presence of α-SMA-positive cells was monitored in the final experimental series. α-SMA is expressed in myofibroblasts but not in epithelial cells, and was detected in these experiments together with ZO-1 by co-immunostaining (FIG. 2).

[2] = tested on: primary human renal proximal tubule cells (HPTCs); assay: Quantification of α-SMA expression by immunoblotting; type: cell-based; conditions: HPTCs on laminin + collagen IV treated with BMP-7 100 ng/ml; control uncoated TCP; FIG. 3
Experimental: Immunoblotting: For immunoblotting, cells were lyzed in 100 μl of heated NuPage LDS sample buffer (Invitrogen). Samples were collected, heated at 95° C. and centrifuged at 10,000 g for 2 minutes to pellet cell debris. Protein concentrations of the supernatants were measured with a NANODROP™ spectrophotometer (Biofrontier, Singapore). Appropriate amounts of the supernatants were loaded onto a NuPage precast gel (4-12%, Invitrogen) with the size marker PAGE Ruler Plus (Fermentas, Hanover, Md., USA). Proteins were transferred to iBlot membranes after electrophoresis. […]
After washing, the membranes were incubated with 0.2 μl/ml of both peroxidase-conjugated sheep anti-mouse antibody and donkey anti-rabbit antibody. […] The films were scanned and analyzed using Adobe Photoshop CS3.
FIG. 3. Quantification of α-SMA expression by immunoblotting. […] Proteins were extracted in each case from 3 replicas, and the extract obtained from each sample was loaded onto a separate lane of the gel. α-SMA (lower bands, 42 kD) and α-tubulin (loading control, upper bands, 50 kD) were detected by immunoblotting. […] (B) The intensities of the bands shown in (A) were determined. […]

B1: BMP-7: Bone morphogenetic protein (BMP)-7 (Sigma), added at 100 ng/ml (protein, UniProt P18075 293-431, looked up)
Bone morphogenetic protein 7: STGSKQRSQNRSKTPKNQEALRMANVAENSSSDQRQACKKHELYVSFRDLGWQDWIIAPEGYAAYYCEGECAFPLNSYMNATNHAIVQTLVHFINPETVPKPCCAPTQLNAISVLYFDDSSNVILKKYRNMVVRACGCH
appearance of α-SMA-expressing cells and tight junction formation [1]: high numbers of α-SMA-expressing cells, associated with poor formation of tight junctions
α-SMA expression by immunoblotting (ratio to α-tubulin) versus control [2]: significant differences compared to the control; also recorded: significantly (p 0.002) higher
